Paper PMC11014909 (2024)

B1: GST-Pif1N(56–77) [S. cerevisiae] / Rfa1N(1–132)-4myc [S. cerevisiae] (parent complex)
chain 1: KHPSILSKEDLDLLSDSDDWEE
chain 2: MSSVQLSRGDFHSIFTNKQRYDNPTGGVYQVYNTRKSDGANSNRKNLIMISDGIYHMKALLRNQAASKFQSMELQRGDIIRVIIAEPAIVRERKKYVLLVDDFELVQSRADMVNQTSTFLDNYFSEHPNETL

Variants of: B1
Assay: GST pull-down followed by myc-specific western blotting, quantified; n = 3 biological replicates; parent: 0.53; read off a plot

| response | Variant |
| --- | --- |
| ~0.077 % of input | chain 1 L11A, chain 1 D12A, chain 1 L13A, chain 1 L14A |
